According to PMC10802681, “Structures of the essential efflux pump EfpA from Mycobacterium tuberculosis reveal the mechanisms of substrate transport and small-molecule inhibition” (Research Square, 2024):
Where a chain is given by its changes, count along the chain named. In names and notes the source's numbering stands.

B1: MtEfpA (EfpA from Mycobacterium tuberculosis), wild type, with C-terminal GFP and Strep-Tag II (natural protein)
chain: MTALNDTERAVRNWTAGRPHRPAPMRPPRSEETASERPSRYYPTWLPSRSFIAAVIAIGGMQLLATMDSTVAIVALPKIQNELSLSDAGRSWVITAYVLTFGGLMLLGGRLGDTIGRKRTFIVGVALFTISSVLCAVAWDEATLVIARLSQGVGSAIASPTGLALVATTFPKGPARNAATAVFAAMTAIGSVMGLVVGGALTEVSWRWAFLVNVPIGLVMIYLARTALRETNKERMKLDATGAILATLACTAAVFAFSIGPEKGWMSGITIGSGLVALAAAVAFVIVERTAENPVVPFHLFRDRNRLVTFSAILLAGGVMFSLTVCIGLYVQDILGYSALRAGVGFIPFVIAMGIGLGVSSQLVSRFSPRVLTIGGGYLLFGAMLYGSFFMHRGVPYFPNLVMPIVVGGIGIGMAVVPLTLSAIAGVGFDQIGPVSAIALMLQSLGGPLVLAVIQAVITSRTLYLGGTTGPVKFMNDVQLAALDHAYTYGLLWVAGAAIIVGGMALFIGYTPQQVAHAQEVKEAIDAGEL
notes: Forms an antiparallel dimer in LMNG-CHS; predominantly monomeric in DDM-CHS; No tag cleavage is described; also called MtEfpA-cGFP; MtEfpA-GFP; not shown: GFP, C-terminal, kept
B2: MtEfpA L195D mutant (natural protein)
chain: B1 chain with L195D
B3: MtEfpA G377D mutant (natural protein)
chain: B1 chain with G377D
B4: MtEfpA T324D mutant (natural protein)
chain: B1 chain with T324D
B5: MtEfpA G502D mutant (natural protein)
chain: B1 chain with G502D

Assays:
cryo-EM structure = molecular target: the molecule itself; test: cryo-EM structure
[1] = molecular target: the molecule itself; test: SEC + other: negative-stain EM

Protein	stoichiometry N (cryo-EM structure)	binding result [1]
B1	2	–
B2	–	binds
B3	–	binds
B4	–	binds
B5	–	binds
